In the supplement of paper PMC10567573:

B1: WEE1 (parent)
chain: INPFTPDSLLLHSSGQCRRRKRTY
B2: HESX1 (parent)
chain: HVPNPPSGISFPSVVDHPMPEERA

Variants of: B1
Assay: protein stability index of a GFP-peptide fusion (GPS, HEK-293T) (PSI 1-6); higher = more stable
Settings: c terminus: a fixed tail appended
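Further: lentivirally expressed fusions sorted by FACS into six bins by GFP to DsRed ratio, PSI derived from sequencing read proportions per bin multiplied by bin number.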

| Variant | protein stability index |
| --- | --- |
| INPFTPDSLFLHSSGQCRRRKRTY | 3.42 |
| INPFTPDSLGLHSSGQCRRRKRTY | 3.83 |
| INPFTPDSLCLHSSGQCRRRKRTY | 3.68 |
| INPFTPDSLELHSSGQCRRRKRTY | 3.41 |
| INPFTPDSLILHSSGQCRRRKRTY | 3.61 |
| INPFTPDSQLLHSSGQCRRRKRTY | 3.68 |
| INPFTPDSPLLHSSGQCRRRKRTY | 3.96 |
| INPFTPDSLLLHSSGQCRRRQRTY | 2.46 |
| INPFTPDSLLLHSSGQCRRRDRTY | 2.9 |
| INPFTPDSLLLHSSGQCRRRSRTY | 3.18 |
| INPFTPDSLLLHSSGQCRRRARTY | 3.77 |
| INPFTPDSLLLHSSGQCRRKKRTY | 3.23 |
| INPFTPDSLLLHSSGQCRRAKRTY | 3.08 |
| INPFTPDSLLLHSSGQCRRMKRTY | 2.85 |
| INPFTPDSLLLHSSGQCRRYKRTY | 2.61 |
| INPFTPDSLLLHSAGQCRRRKRTY | 3.3 |
| INPFTPDSLLLHSVGQCRRRKRTY | 2.62 |
| INPFTPDSLLLHSFGQCRRRKRTY | 2.51 |
| INPFTPDSLLLHSWGQCRRRKRTY | 2.46 |
| INPFTPDSLLLHSSGQCRRRKRTL | 3.04 |
| INPFTPDSLLLHSSGQCRRRKRTH | 3.75 |
| INPFTPDSLLLHSSGQCRRRKRTN | 3.75 |
| INPFTPDSLLLHSSGQCRRRKRTK | 4.27 |
| INPFTPDSLLLHSSGQCRRRKRTI | 3.01 |

| Variant | protein stability index |
| --- | --- |
| INPFTPDSLLLHHSGQCRRRKRTY | 4.14 |
| INPFTPDSLLLHRSGQCRRRKRTY | 3.12 |
| INPFTPDSLLLHPSGQCRRRKRTY | 3.63 |
| INPFTPDSLLLHESGQCRRRKRTY | 4.01 |
| INPFTPDSLLLHKSGQCRRRKRTY | 3.69 |
| INPFTPDSLLLHSSGQCRRRKRRY | 3.56 |
| INPFTPDSLLLHSSGQCRRRKRNY | 3.5 |
| INPFTPDSLLLHSSGQCRRRKRAY | 3.79 |
| INPFTPDSLLLHSSGQCRRRKRKY | 4.29 |
| INPFTPDSLLLHSSGQCRRRKRYY | 3.38 |
| INPFTPDSLLLHSSGQCRRRKREY | 3.37 |
| INPFTPDSLLLHSSGQCRRRKRPY | 3.26 |
| INPFTPDSLLLHSSGQCRRRKRVY | 3.06 |
| ITPFTPDSLLLHSSGQCRRRKRTY | 3.59 |
| IQPFTPDSLLLHSSGQCRRRKRTY | 3.57 |
| IGPFTPDSLLLHSSGQCRRRKRTY | 3.48 |
| IHPFTPDSLLLHSSGQCRRRKRTY | 3.19 |
| IRPFTPDSLLLHSSGQCRRRKRTY | 2.9 |
| IVPFTPDSLLLHSSGQCRRRKRTY | 3.39 |
| IDPFTPDSLLLHSSGQCRRRKRTY | 4.16 |
| INPFTPDSLLLHSSGQCRTRKRTY | 2.78 |
| INPFTPDSLLLHSSGQCRYRKRTY | 2.83 |
| INPFTPDSLLLHSSGQKRRRKRTY | 4.12 |
| INPFTPDSLLLHSSGQIRRRKRTY | 4.01 |

| Variant | protein stability index |
| --- | --- |
| INPFTPHSLLLHSSGQCRRRKRTY | 2.69 |
| INPFTPLSLLLHSSGQCRRRKRTY | 2.73 |
| INPFTPVSLLLHSSGQCRRRKRTY | 2.63 |
| INPFTPYSLLLHSSGQCRRRKRTY | 3.27 |
| INPFTPPSLLLHSSGQCRRRKRTY | 3.09 |
| INPFTPDSLLLHSSGQCNRRKRTY | 3.12 |
| INPFTPDSLLLHSSGQCYRRKRTY | 3.58 |
| INPFTPDSLLLHSSGQCCRRKRTY | 2.94 |
| INPFTPDSLLLHSSGQCERRKRTY | 3.67 |
| INPFTPDSLLLHSSGQCLRRKRTY | 3.2 |
| INPFTPDSLLLPSSGQCRRRKRTY | 3.4 |
| INPFTPDSLLLASSGQCRRRKRTY | 3.61 |
| INPFTPDSLLLMSSGQCRRRKRTY | 3.32 |
| INPFTPDSLLLESSGQCRRRKRTY | 4.06 |
| INPFTPDSLLLHSSGQCRRRKITY | 3.11 |
| INPFTPDSLLLHSSGQCRRRKPTY | 3.23 |
| INPFTPDSLLLHSSGQCRRRKTTY | 3.45 |
| INPFTPDSLLLHSSGQCRRRKHTY | 3.5 |
| INPFTPDSLLLHSSGQCRRRKSTY | 3.31 |
| INPFTPDSLLLHSSGQCRRRKATY | 3.67 |
| INPFTPDSLLHHSSGQCRRRKRTY | 3.47 |
| INPFTPDSLLPHSSGQCRRRKRTY | 4.55 |
| INPFTPDSLLSHSSGQCRRRKRTY | 3.96 |
| INPFFPDSLLLHSSGQCRRRKRTY | 2.67 |

| Variant | protein stability index |
| --- | --- |
| INPFPPDSLLLHSSGQCRRRKRTY | 2.95 |
| INPFKPDSLLLHSSGQCRRRKRTY | 3.45 |
| INPFCPDSLLLHSSGQCRRRKRTY | 2.87 |
| INPFSPDSLLLHSSGQCRRRKRTY | 3.23 |
| INPFAPDSLLLHSSGQCRRRKRTY | 3.93 |
| INPFQPDSLLLHSSGQCRRRKRTY | 3.78 |
| INPFEPDSLLLHSSGQCRRRKRTY | 3.98 |
| INPHTPDSLLLHSSGQCRRRKRTY | 4.25 |
| INPRTPDSLLLHSSGQCRRRKRTY | 3.77 |
| INPETPDSLLLHSSGQCRRRKRTY | 4.48 |
| INPLTPDSLLLHSSGQCRRRKRTY | 3.2 |
| INPPTPDSLLLHSSGQCRRRKRTY | 4.58 |
| INPCTPDSLLLHSSGQCRRRKRTY | 3.67 |
| INPYTPDSLLLHSSGQCRRRKRTY | 3.31 |
| INPSTPDSLLLHSSGQCRRRKRTY | 4.18 |
| INPWTPDSLLLHSSGQCRRRKRTY | 3.87 |
| INPFTPDSLLLHSSCQCRRRKRTY | 2.26 |
| INPFTPDSLLLHSSPQCRRRKRTY | 3.05 |
| INPFTPDSLLLHSSRQCRRRKRTY | 4.12 |
| INPFTPDSLLLHSSAQCRRRKRTY | 3.71 |
| INPFTPDSLLLHSSYQCRRRKRTY | 2.9 |
| INEFTPDSLLLHSSGQCRRRKRTY | 3.44 |
| INKFTPDSLLLHSSGQCRRRKRTY | 3.1 |
| INGFTPDSLLLHSSGQCRRRKRTY | 3.11 |

| Variant | protein stability index |
| --- | --- |
| INWFTPDSLLLHSSGQCRRRKRTY | 1.3 |
| INPFTPDWLLLHSSGQCRRRKRTY | 3.5 |
| INPFTPDMLLLHSSGQCRRRKRTY | 2.75 |
| INPFTPDCLLLHSSGQCRRRKRTY | 2.73 |
| INPFTPDLLLLHSSGQCRRRKRTY | 2.82 |
| INPFTPDALLLHSSGQCRRRKRTY | 3.42 |
| INPFTPDILLLHSSGQCRRRKRTY | 2.6 |
| INPFTPDYLLLHSSGQCRRRKRTY | 2.65 |
| INPFTPDFLLLHSSGQCRRRKRTY | 2.5 |
| INPFTHDSLLLHSSGQCRRRKRTY | 3.18 |
| INPFTLDSLLLHSSGQCRRRKRTY | 2.06 |
| INPFTNDSLLLHSSGQCRRRKRTY | 4.07 |
| INPFTFDSLLLHSSGQCRRRKRTY | 2.64 |
| INPFTVDSLLLHSSGQCRRRKRTY | 2.07 |
| MNPFTPDSLLLHSSGQCRRRKRTY | 3.33 |
| ENPFTPDSLLLHSSGQCRRRKRTY | 3.6 |
| KNPFTPDSLLLHSSGQCRRRKRTY | 3.62 |
| RNPFTPDSLLLHSSGQCRRRKRTY | 4.02 |
| TNPFTPDSLLLHSSGQCRRRKRTY | 3.87 |
| GNPFTPDSLLLHSSGQCRRRKRTY | 3.81 |
| VNPFTPDSLLLHSSGQCRRRKRTY | 3.55 |
| QNPFTPDSLLLHSSGQCRRRKRTY | 3.95 |
| INPFTPDSLLLHSSGFCRRRKRTY | 2.65 |
| INPFTPDSLLLHSSGRCRRRKRTY | 3.95 |

Variants of: B2
Assay: as above
Settings: c terminus: a fixed tail appended

| Variant | protein stability index |
| --- | --- |
| HRPNPPSGISFPSVVDHPMPEERA | 4.84 |
| HAPNPPSGISFPSVVDHPMPEERA | 4.97 |
| HVPNPPRGISFPSVVDHPMPEERA | 2.9 |
| HVPNPPEGISFPSVVDHPMPEERA | 3.57 |
| HVPNPPWGISFPSVVDHPMPEERA | 1.71 |
| HVPNFPSGISFPSVVDHPMPEERA | 2.38 |
| HVENPPSGISFPSVVDHPMPEERA | 5.25 |
| HVGNPPSGISFPSVVDHPMPEERA | 4.01 |
| HVKNPPSGISFPSVVDHPMPEERA | 2.99 |
| HVFNPPSGISFPSVVDHPMPEERA | 3.85 |
| HVPNPPSRISFPSVVDHPMPEERA | 2.94 |
| HVPNPPSGILFPSVVDHPMPEERA | 2.38 |
| HVPNPPSGISFPSVVDHPMPEEWA | 2.37 |
| HVPNPPSGISFPSVVDHPMPEELA | 2.1 |
| HVPNPPSGISFPSVVDHPMPEEHA | 2.99 |
| HVPNPPSGISFPSVVDHPMPEEKA | 2.77 |
| HVPNPPSGISFPSVVDHPMPEEFA | 2.11 |
| HVPNPPSGISFPSVVDHPMPEEQA | 2.21 |
| HVPNPPSGNSFPSVVDHPMPEERA | 3.31 |
| HVPNPPSGPSFPSVVDHPMPEERA | 2.23 |
| HVPNPPSGCSFPSVVDHPMPEERA | 2.66 |
| HVPNPNSGISFPSVVDHPMPEERA | 2 |
| HVPNPASGISFPSVVDHPMPEERA | 2.34 |

| Variant | protein stability index |
| --- | --- |
| HVPNPWSGISFPSVVDHPMPEERA | 2.25 |
| HVPNPLSGISFPSVVDHPMPEERA | 2.62 |
| HVPNPPSGISFPGVVDHPMPEERA | 2.81 |
| HVPNPPSGISFPPVVDHPMPEERA | 2.73 |
| HVPNPPSGISFPSVVDHPVPEERA | 2.44 |
| HVPNPPSGISFPSVVDHPNPEERA | 2.97 |
| HVPNPPSGISFPSVVDHPCPEERA | 2.37 |
| HVPNPPSGISFPSVVDHPHPEERA | 3.03 |
| HVPNPPSGISFPSVVDHPTPEERA | 2.59 |
| HVPNPPSGISFPSVVDHPDPEERA | 2.94 |
| HVPNPPSGISMPSVVDHPMPEERA | 4.88 |
| HVPNPPSGISAPSVVDHPMPEERA | 5 |
| HVPNPPSGISYPSVVDHPMPEERA | 4.22 |
| HVPNPPSGISFPSVVDHQMPEERA | 2.61 |
| HVPNPPSGISFPSVVDHCMPEERA | 2.25 |
| HVPNPPSGISFPSVVDHNMPEERA | 2.62 |
| HVPNPPSGISFPSVVDHYMPEERA | 2.48 |
| HVPNPPSGISFPSVVDHRMPEERA | 2.79 |
| HVPNPPSGISFCSVVDHPMPEERA | 2.72 |
| HVPNPPSGISFWSVVDHPMPEERA | 3.85 |
| HVPNPPSGISFPSPVDHPMPEERA | 3.83 |
| HVPNPPSGISFPSVVDHPMPEKRA | 1.83 |
| HVPNPPSGISFPSVVDHPMPEHRA | 2.29 |

| Variant | protein stability index |
| --- | --- |
| HVPNPPSGISFPSVVDHPMPESRA | 2.3 |
| HVPNPPSGISFPSVVDHPMPEYRA | 2.68 |
| HVPNPPSGISFPSVVDHPMPEERE | 2.95 |
| HVPNPPSGISFPSVVDHPMPEERI | 2.36 |
| MVPNPPSGISFPSVVDHPMPEERA | 5.08 |
| GVPNPPSGISFPSVVDHPMPEERA | 5.41 |
| HVPIPPSGISFPSVVDHPMPEERA | 3.54 |
| HVPSPPSGISFPSVVDHPMPEERA | 2.24 |
| HVPNPPSGISFPSVVDHPMPYERA | 2.43 |
| HVPNPPSGISFPSVVDGPMPEERA | 2.82 |
| HVPNPPSGISFPSVVDWPMPEERA | 2.19 |
| HVPNPPSGISFPSVVHHPMPEERA | 2.81 |
| HVPNPPSGISFPSVVYHPMPEERA | 2.57 |
| HVPNPPSGISFPSVADHPMPEERA | 2.65 |
| HVPNPPSGISFPSVRDHPMPEERA | 3.11 |
| HVPNPPSGISFPSVIDHPMPEERA | 3.16 |
| HVPNPPSGISFPSVVDHPMNEERA | 3.28 |
| HVPNPPSGISFPSVVDHPMQEERA | 2.78 |
| HVPNPPSGISFPSVVDHPMEEERA | 2.48 |
| HVPNPPSGISFPSVVDHPMWEERA | 2.1 |
| HVPNPPSGISFPSVVDHPMTEERA | 2.91 |
| HVPNPPSGISFPSVVDHPMMEERA | 2.79 |
